According to IntAct's records for PubMed 19172740:

B1: EKC/KEOPS complex subunit BUD32 (Saccharomyces cerevisiae), P53323 (parent)
chain: MTQEFIDKVSSYLTPDVDIAPISQGAEAIVFTTTTHPYLPRAKDSHQKYIIKYRPPKRYRHPQIDQALTKHRTLNESRLLAKLYLIPGLCVPQLIACDPYNGFIWLEFLGEDLPGGHGFSNLKNFLWMHDQDPYSDLVATTLRKVGRQIGLLHWNDYCHGDLTSSNIVLVRDGARWTPHLIDFGLGSVSNLVEDKGVDLYVLERAILSTHSKHAEKYNAWIMEGFEEVYREQGAKGAKKLKEVTKRFEEVRLRGRKRSMLG
partner: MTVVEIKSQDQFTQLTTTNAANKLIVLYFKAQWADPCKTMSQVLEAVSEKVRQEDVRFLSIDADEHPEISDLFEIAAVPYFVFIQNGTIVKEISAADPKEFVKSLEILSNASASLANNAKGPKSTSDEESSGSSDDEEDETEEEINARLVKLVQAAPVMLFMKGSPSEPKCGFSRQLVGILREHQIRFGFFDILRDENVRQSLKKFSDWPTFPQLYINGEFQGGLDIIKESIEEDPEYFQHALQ
B2: tRNA N6-adenosine threonylcarbamoyltransferase (Saccharomyces cerevisiae), P36132 (parent)
chain: MVNLNTIPPKNGRDYYIALGLEGSANKLGVGIVKHPLLPKHANSDLSYDCEAEMLSNIRDTYVTPPGEGFLPRDTARHHRNWCIRLIKQALAEADIKSPTLDIDVICFTKGPGMGAPLHSVVIAARTCSLLWDVPLVGVNHCIGHIEMGREITKAQNPVVLYVSGGNTQVIAYSEKRYRIFGETLDIAIGNCLDRFARTLKIPNEPSPGYNIEQLAKKAPHKENLVELPYTVKGMDLSMSGILASIDLLAKDLFKGNKKNKILFDKTTGEQKVTVEDLCYSLQENLFAMLVEITERAMAHVNSNQVLIVGGVGCNVRLQEMMAQMCKDRANGQVHATDNRFCIDNGVMIAQAGLLEYRMGGIVKDFSETVVTQKFRTDEVYAAWRD
B3: EKC/KEOPS complex subunit BUD32 (Saccharomyces cerevisiae), P53323 (parent)
chain: B1 chain
partner: B2 chain

Variants of: B1
Settings: with glrx4_yeast GRX4, P32642

Variant	effect of a mutation on the interaction
D161A	disrupting interaction

Variants of: B2
Settings: with bud32_yeast BUD32, P53323

Variant	effect of a mutation on the interaction
MVNLNTIPPKNGRDYYIALGLEGSANKLGVGIVKHPLLPKHANSDLSYDCEAEMLSNIRDTYVTPPGEGFLPRDTARHHRNWCIRLIKQALAEADIKSPTLDIDVICFTKGPGMGAPLHSVVIAARTCSLLWDVPLVGVNHCIGHIEMGREITKAQNPVVLYVSGGNTQVIAYSEKRYRIFGETLDIAIGNCLDRFARTLKIPNEPSPGYNIEQLAKKAPHKENLVELPYTVKGMRLSMSGILASIDLLAKDLFKGNKKNKILFDKTTGEQKVTVEDLCYSLQENLFAMLVEITERAMAHVNSNQVLIVGGVGCNVRLQEMMAQMCKDRANGQVHATDNRFCIDNGVMIAQAGLLEYRMGGIVKDFSETVVTQKFRTDEVYAAWRD [D236R]	decreasing interaction

Variants of: B2
Settings: with bud32_yeast BUD32, P53323
Remark: another data set of the same source

Variant	effect of a mutation on the interaction
MVNLNTIPPKNGRDYYIALGLEGSANKLGVGIVKHPLLPKHANSDLSYDCEAEMLSNIRDTYVTPPGEGFLPRDTARHHRNWCIRLIKQALAEADIKSPTLDIDVICFTKGPGMGAPLHSVVIAARTCSLLWDVPLVGVNHCIGHIEMGREITKAQNPVVLYVSGGNTQVIAYSEKRYRIFGETLDIAIGNCLDRFARTLKIPNEPSPGYNIEQLAKKAPHKENLVELPYTVKGMDLSMSGILASIDLLAKDLFKGNKKNKILFDKTTGEQKVTVEDLCYSLQENLFAMLVEITRRAMAHVNSNQVLIVGGVGCNVRLQEMMAQMCKDRANGQVHATDNRFCIDNGVMIAQAGLLEYRMGGIVKDFSETVVTQKFRTDEVYAAWRD [E295R]	disrupting interaction
MVNLNTIPPKNGRDYYIALGLEGSANKLGVGIVKHPLLPKHANSDLSYDCEAEMLSNIRDTYVTPPGEGFLPRDTARHHRNWCIRLIKQALAEADIKSPTLDIDVICFTKGPGMGAPLHSVVIAARTCSLLWDVPLVGVNHCIGHIEMGREITKAQNPVVLYVSGGNTQVIAYSEKRYRIFGETLDIAIGNCLDRFARTLKIPNEPSPGYNIEQLAKKAPHKENLVELPYTVKGMDLSMSGILASIDLLAKDLFKGNKKNKILFDKTTGEQKVTVEDLCYSLQENLFAMLVRITERAMAHVNSNQVLIVGGVGCNVRLQEMMAQMCKDRANGQVHATDNRFCIDNGVMIAQAGLLEYRMGGIVKDFSETVVTQKFRTDEVYAAWRD [E292R]	disrupting interaction

Variants of: B3
Settings: with kae1_yeast KAE1, P36132

Variant	effect of a mutation on the interaction
K57E	disrupting interaction

Variants of: B3
Settings: with kae1_yeast KAE1, P36132
Remark: another data set of the same source

Variant	effect of a mutation on the interaction
R72E	decreasing interaction

Variants of: B3
Settings: with kae1_yeast KAE1, P36132
Remark: another data set of the same source

Variant	effect of a mutation on the interaction
Y59E	disrupting interaction

Variants of: B3
Settings: with kae1_yeast KAE1, P36132
Remark: another data set of the same source

Variant	effect of a mutation on the interaction
R60E	disrupting interaction
